Data on 2 substances can be found in patent publication US20020198363A1.

The target of this assay is chimera protein of europium (Eu) labeled human glycoprotein Ib α-chain and a mouse IgG2a Fc region (human; mouse) (UniProt P07359).
Chain of UniProt P07359 (P07359 17-335 limits assumed, change not shown): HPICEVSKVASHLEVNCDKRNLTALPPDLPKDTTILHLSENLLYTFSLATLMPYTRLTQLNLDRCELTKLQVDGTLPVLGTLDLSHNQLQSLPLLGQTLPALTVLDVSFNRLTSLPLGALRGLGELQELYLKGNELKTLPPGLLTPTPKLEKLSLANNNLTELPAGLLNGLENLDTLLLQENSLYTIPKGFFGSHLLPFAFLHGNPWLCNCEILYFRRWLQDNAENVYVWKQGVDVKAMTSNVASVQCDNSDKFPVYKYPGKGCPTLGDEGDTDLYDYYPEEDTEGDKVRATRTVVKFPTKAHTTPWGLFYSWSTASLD

The substance “AS1051-PEG20000 (from UniProt P81508 1-126)” showed an IC50 of 0.0903 µg/mL. Then “AS1051-PEG5000 (from UniProt P81508 1-126)”, with 0.0981 µg/mL.
